Data: paper PMC4382515

Substrate: N[C@@H](CCC(=O)O)C(=O)O
Assay: purified protein
Settings: pH 4.6; 25.0 °C

B1: EcGadB (Escherichia coli K-12) (protein)
chain: MDKKQVTDLRSELLDSRFGAKSISTIAESKRFPLHEMRDDVAFQIINDELYLDGNARQNLATFCQTWDDENVHKLMDLSINKNWIDKEEYPQSAAIDLRCVNMVADLWHAPAPKNGQAVGTNTIGSSEACMLGGMAMKWRWRKRMEAAGKPTDKPNLVCGPVQICWHKFARYWDVELREIPMRPGQLFMDPKRMIEACDENTIGVVPTFGVTYTGNYEFPQPLHDALDKFQADTGIDIDMHIDAASGGFLAPFVAPDIVWDFRLPRVKSISASGHKFGLAPLGCGWVIWRDEEALPQELVFNVDYLGGQIGTFAINFSRPAGQVIAQYYEFLRLGREGYTKVQNASYQVAAYLADEIAKLGPYEFICTGRPDEGIPAVCFKLKDGEDPGYTLYDLSERLRLRGWQVPAFTLGGEATDIVVMRIMCRRGFEMDFAELLLEDYKASLKYLSDHPKLQGIAQQNSFKHT
  Km: 1100 ± 180 µM
  kcat/Km: 13900 ± 2830 M⁻¹ s⁻¹
